Results reported in PMC8928417.
pKd: −log10 of the molar value.

Molecular target: biotinylated histone H3 peptide trimethylated at lysine 27, H3K27me3 (21–44) (UniProt P68431)
Assay: peptide or protein array

pKd: 5.05 to 5.29
Substance: polycomb-based transcription factor (PcTF), monovalent (from UniProt Q9HC52 1-62) (designed binder)
